Assay results: the supplement of paper PMC10065799, “High-throughput profiling of sequence recognition by tyrosine kinases and SH2 domains using bacterial peptide display” (eLife, 2023)

Columns and labels:
MERTK = MERTK (UniProt Q12866); test: phosphorylation enrichment, bacterial display (enrichment ratio); higher = better substrate or ligand; peptides without Tyr show the background
Hck = Hck (UniProt P08631); test: as above
FGFR3 = FGFR3 (UniProt P22607); test: as above
Fyn = Fyn (UniProt P06241); test: as above
Fyn, sequence (P06241 whole entry, looked up): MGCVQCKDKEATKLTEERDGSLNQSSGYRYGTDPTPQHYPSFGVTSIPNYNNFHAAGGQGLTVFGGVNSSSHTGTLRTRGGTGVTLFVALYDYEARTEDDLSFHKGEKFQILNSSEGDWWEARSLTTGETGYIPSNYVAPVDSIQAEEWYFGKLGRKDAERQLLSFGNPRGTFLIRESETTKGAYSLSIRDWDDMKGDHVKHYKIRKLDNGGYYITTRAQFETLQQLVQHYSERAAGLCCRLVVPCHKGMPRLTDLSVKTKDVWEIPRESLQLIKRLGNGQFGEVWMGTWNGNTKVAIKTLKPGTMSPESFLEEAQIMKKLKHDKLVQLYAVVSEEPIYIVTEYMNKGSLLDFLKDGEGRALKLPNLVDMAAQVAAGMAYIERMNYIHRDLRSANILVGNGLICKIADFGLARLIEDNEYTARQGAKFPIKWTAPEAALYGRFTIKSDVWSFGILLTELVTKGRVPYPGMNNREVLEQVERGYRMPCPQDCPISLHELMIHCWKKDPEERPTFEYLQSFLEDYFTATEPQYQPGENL

c-Src = test: as above
Fes = Fes (UniProt P07332); test: as above
c-Abl (mouse) = test: as above
EPHB2 = EPHB2 (UniProt P29323); test: as above
EPHB2, sequence (P29323 whole entry, looked up): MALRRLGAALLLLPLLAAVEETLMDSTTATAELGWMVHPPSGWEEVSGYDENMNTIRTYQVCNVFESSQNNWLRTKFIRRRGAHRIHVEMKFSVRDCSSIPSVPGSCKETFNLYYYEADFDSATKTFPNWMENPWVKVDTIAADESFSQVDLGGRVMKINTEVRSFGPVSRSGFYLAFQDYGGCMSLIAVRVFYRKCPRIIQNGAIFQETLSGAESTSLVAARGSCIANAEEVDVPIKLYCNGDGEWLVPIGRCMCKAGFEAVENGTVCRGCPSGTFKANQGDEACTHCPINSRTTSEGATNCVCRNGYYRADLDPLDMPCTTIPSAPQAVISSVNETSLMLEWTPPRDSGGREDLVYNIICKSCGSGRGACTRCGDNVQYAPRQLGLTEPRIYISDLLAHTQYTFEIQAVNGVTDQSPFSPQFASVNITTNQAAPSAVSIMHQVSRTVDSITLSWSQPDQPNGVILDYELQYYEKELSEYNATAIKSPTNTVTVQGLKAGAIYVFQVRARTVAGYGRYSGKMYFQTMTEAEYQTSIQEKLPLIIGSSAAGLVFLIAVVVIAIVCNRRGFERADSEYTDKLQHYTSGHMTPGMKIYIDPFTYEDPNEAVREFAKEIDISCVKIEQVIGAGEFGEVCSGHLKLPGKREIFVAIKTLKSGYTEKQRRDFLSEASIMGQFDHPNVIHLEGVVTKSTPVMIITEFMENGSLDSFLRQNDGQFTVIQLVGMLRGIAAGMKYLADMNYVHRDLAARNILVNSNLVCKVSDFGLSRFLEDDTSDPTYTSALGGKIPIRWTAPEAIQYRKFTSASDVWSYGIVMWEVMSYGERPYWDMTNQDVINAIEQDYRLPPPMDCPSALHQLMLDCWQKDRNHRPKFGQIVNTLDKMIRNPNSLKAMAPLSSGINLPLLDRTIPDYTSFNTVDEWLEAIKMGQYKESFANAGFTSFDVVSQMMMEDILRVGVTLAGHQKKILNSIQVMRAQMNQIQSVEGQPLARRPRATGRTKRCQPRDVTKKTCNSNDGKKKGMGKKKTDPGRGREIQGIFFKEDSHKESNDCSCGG

AncSZ = test: as above
FGFR1 = FGFR1 (UniProt P11362); test: as above
FGFR1, sequence (P11362 whole entry, looked up): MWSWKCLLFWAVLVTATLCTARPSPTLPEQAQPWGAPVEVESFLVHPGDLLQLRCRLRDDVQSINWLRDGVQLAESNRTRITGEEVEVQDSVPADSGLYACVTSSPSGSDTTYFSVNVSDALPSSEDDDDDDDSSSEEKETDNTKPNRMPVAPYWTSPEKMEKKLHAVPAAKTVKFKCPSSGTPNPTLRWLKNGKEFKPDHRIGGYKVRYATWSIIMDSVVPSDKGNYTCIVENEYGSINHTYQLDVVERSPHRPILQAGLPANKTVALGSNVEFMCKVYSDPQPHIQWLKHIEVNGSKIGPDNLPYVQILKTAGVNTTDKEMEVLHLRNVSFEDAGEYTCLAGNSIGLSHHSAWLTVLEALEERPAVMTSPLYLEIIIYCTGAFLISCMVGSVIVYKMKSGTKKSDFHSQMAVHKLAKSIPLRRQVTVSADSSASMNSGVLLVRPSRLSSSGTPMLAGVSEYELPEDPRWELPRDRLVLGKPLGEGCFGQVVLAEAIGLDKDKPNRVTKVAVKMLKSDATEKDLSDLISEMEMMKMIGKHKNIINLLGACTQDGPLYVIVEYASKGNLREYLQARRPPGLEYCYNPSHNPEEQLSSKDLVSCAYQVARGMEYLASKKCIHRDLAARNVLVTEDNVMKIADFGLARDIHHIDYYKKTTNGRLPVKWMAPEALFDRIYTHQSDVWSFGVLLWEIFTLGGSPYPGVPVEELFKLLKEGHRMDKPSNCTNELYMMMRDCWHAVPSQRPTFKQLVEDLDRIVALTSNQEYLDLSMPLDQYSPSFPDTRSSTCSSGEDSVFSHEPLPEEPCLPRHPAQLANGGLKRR

Jak2 = Jak2 (UniProt O60674); test: as above
Jak2, sequence (O60674 whole entry, looked up): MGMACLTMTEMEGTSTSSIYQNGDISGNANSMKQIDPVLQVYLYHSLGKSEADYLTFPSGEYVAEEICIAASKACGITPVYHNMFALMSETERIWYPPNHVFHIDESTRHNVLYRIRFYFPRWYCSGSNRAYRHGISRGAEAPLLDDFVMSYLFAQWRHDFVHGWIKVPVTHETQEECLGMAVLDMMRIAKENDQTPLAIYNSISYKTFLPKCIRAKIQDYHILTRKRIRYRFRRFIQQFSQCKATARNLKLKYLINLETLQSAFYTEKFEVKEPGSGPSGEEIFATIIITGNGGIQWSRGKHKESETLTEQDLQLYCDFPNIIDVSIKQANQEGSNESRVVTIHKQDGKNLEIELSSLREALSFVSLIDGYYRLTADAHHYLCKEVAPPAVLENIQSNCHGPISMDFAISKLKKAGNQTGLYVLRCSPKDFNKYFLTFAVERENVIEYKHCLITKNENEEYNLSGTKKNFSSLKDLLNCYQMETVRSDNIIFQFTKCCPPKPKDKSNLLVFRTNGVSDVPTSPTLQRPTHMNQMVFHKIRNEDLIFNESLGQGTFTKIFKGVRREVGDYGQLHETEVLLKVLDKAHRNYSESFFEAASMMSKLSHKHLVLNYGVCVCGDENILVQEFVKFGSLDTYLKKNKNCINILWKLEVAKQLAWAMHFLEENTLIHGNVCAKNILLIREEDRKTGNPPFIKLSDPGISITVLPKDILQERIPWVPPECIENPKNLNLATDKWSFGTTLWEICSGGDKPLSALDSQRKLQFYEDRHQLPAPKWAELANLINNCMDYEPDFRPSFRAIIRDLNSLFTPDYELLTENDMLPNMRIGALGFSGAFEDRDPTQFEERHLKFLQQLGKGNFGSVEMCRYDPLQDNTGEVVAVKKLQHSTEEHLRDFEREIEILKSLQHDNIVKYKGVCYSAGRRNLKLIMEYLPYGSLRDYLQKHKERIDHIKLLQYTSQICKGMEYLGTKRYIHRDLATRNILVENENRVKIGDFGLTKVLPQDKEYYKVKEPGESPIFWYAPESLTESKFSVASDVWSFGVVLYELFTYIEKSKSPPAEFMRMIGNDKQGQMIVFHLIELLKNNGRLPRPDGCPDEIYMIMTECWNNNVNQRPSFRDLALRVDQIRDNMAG

Fer (mouse) = test: as above
EPHB1 = EPHB1 (UniProt P54762); test: as above
Grb2 SH2 = Grb2 SH2 (UniProt P62993); test: SH2 binding enrichment of the phosphorylated peptide, bacterial display (enrichment ratio); higher = better substrate or ligand; peptides without Tyr show the background
SHP2-C SH2 = test: as above
c-Src SH2 = test: as above
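Wherever SH2 binding enrichment of the phosphorylated peptide, bacterial display is given: peptide library displayed on the E. coli surface as eCPX fusions, selected cells deep-sequenced, score is each peptide's frequency after selection divided by its frequency in the input.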
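Wherever phosphorylation enrichment, bacterial display is given: 11-residue human phosphosite peptides and single-mutation variants displayed on the E. coli surface, counted by deep sequencing, each peptide's frequency after selection divided by its frequency in the unselected input library; frequency after pTyr selection over input frequency; kinase dosed for 20-30% of maximal phosphorylation in three min.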

Hck, sequence (P08631 whole entry, looked up): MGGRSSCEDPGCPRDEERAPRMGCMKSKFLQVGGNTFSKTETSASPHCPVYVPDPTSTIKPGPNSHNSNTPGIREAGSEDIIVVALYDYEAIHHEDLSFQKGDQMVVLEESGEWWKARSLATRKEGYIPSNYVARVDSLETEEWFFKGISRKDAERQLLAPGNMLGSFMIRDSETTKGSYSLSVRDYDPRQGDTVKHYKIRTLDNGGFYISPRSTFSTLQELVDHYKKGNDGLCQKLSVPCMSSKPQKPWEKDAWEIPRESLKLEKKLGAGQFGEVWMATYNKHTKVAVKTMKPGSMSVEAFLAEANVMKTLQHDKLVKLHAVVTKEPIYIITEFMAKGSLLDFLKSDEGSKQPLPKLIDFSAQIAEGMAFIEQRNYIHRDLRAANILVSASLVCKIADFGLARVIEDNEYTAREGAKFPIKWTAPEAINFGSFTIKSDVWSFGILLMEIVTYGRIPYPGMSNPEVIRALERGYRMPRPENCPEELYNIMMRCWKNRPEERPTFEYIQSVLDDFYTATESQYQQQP
FGFR3, sequence (P22607 whole entry, looked up): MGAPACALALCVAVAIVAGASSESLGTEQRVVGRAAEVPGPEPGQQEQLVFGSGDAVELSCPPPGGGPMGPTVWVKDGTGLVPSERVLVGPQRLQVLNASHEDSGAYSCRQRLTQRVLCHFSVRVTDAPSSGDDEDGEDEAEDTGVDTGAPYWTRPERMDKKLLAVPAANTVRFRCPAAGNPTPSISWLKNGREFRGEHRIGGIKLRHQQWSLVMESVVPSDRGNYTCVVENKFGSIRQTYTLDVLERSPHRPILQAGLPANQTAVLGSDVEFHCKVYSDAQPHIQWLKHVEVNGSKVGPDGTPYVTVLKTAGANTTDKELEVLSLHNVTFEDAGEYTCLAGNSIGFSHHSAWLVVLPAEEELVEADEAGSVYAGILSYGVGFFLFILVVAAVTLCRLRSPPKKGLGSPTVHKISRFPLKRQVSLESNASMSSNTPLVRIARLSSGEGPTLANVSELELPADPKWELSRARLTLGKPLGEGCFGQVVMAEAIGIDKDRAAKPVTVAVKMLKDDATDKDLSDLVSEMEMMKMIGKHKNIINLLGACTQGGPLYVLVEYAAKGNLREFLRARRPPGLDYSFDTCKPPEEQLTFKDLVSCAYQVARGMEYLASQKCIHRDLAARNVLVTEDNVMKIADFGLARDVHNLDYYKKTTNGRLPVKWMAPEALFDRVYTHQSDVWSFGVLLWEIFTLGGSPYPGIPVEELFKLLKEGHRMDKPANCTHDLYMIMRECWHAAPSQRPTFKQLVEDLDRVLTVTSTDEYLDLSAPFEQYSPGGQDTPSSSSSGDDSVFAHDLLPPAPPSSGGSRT

Row | SH2 binding enrichment (Grb2 SH2) | SH2 binding enrichment (SHP2-C SH2) | SH2 binding enrichment (c-Src SH2) | Sequence | phosphorylation enrichment (MERTK) | phosphorylation enrichment (Hck) | phosphorylation enrichment (FGFR3) | phosphorylation enrichment (Fyn) | phosphorylation enrichment (c-Src) | phosphorylation enrichment (Fes) | phosphorylation enrichment (c-Abl (mouse)) | phosphorylation enrichment (EPHB2) | phosphorylation enrichment (AncSZ) | phosphorylation enrichment (FGFR1) | phosphorylation enrichment (Jak2) | phosphorylation enrichment (Fer (mouse)) | phosphorylation enrichment (EPHB1)
1 | 1.28 | 0.984 | 1.24 | CNNFIYGGCRG [SPINT2_Y163] | 0.391 | 3.35 | 0.382 | 3.89 | 5.21 | 0.699 | 0.442 | 0.404 | 0.543 | 0.455 | 0.591 | 0.371 | 0.361
2 | 0.946 | 0.86 | 0.509 | PIPAAYNKFDQ [CDC73_Y290_R292K_YF] | 0.415 | 0.661 | 0.925 | 0.745 | 0.611 | 0.864 | 0.684 | 1.39 | 1.54 | 0.57 | 0.653 | 0.798 | 0.687
3 | 0.827 | 0.566 | 0.475 | LLSVAYKNVVR [YWHAZ_Y48_G53R] | 0.689 | 0.477 | 0.853 | 0.762 | 0.743 | 1.34 | 1.2 | 0.88 | 1.28 | 1.03 | 1.1 | 0.55 | 0.874
4 | 0.929 | 1.09 | 4.5 | FVTSMYNEILI [TRPV1_Y310_M315I] | 1.17 | 1.14 | 0.903 | 0.682 | 0.621 | 1.32 | 0.686 | 0.714 | 1.16 | 0.733 | 1.01 | 6.66 | 0.684
5 | 2.18 | 1.74 | 1.49 | CIILLYIFLKN [STXBP1_Y411_R406C] | 0.363 | 0.465 | 0.531 | 0.378 | 0.37 | 0.693 | 0.492 | 0.275 | 0.676 | 0.392 | 0.553 | 0.406 | 0.441
6 | 0.75 | 0.735 | 0.457 | ITGNGYFFRVF [MYBPC3_Y1135_I1131T_YF] | 0.305 | 0.377 | 0.595 | 0.358 | 0.31 | 1.08 | 0.647 | 0.493 | 0.906 | 0.451 | 0.99 | 0.416 | 0.496
7 | 0.79 | 0.937 | 0.524 | DQVEQCKKELE [LMNA_Y259_Y259C] | 0.49 | 0.703 | 0.733 | 0.52 | 0.562 | 1.27 | 0.746 | 0.625 | 1.2 | 0.528 | 1.1 | 0.518 | 0.59

Continued, sequence first:

Row | Sequence | SH2 binding enrichment (Grb2 SH2) | SH2 binding enrichment (SHP2-C SH2) | SH2 binding enrichment (c-Src SH2) | phosphorylation enrichment (MERTK) | phosphorylation enrichment (Hck) | phosphorylation enrichment (FGFR3) | phosphorylation enrichment (Fyn) | phosphorylation enrichment (c-Src) | phosphorylation enrichment (Fes) | phosphorylation enrichment (c-Abl (mouse)) | phosphorylation enrichment (EPHB2) | phosphorylation enrichment (AncSZ) | phosphorylation enrichment (FGFR1) | phosphorylation enrichment (Jak2) | phosphorylation enrichment (Fer (mouse)) | phosphorylation enrichment (EPHB1)
8 | HVPEEYKPKQG [SAXO2_Y37] | 0.956 | 0.674 | 0.512 | 0.423 | 0.62 | 0.519 | 0.449 | 0.685 | 1.17 | 0.943 | 0.434 | 0.827 | 0.366 | 0.867 | 0.386 | 0.493
9 | LGLTVYADCLA [ABCA4_Y2063] | 0.918 | 0.553 | 0.564 | 0.369 | 0.515 | 0.78 | 0.589 | 0.473 | 1.39 | 0.815 | 0.657 | 1.14 | 0.618 | 0.992 | 0.584 | 0.686
10 | YTTIHYNYMCN [TP53_Y234_C229Y] | 1 | 2.47 | 6.95 | 4.13 | 0.917 | 3.35 | 0.976 | 1.27 | 1.16 | 0.92 | 0.897 | 1.43 | 4.5 | 1.26 | 2.08 | 1.81
11 | QAKRKYQEVSK [FES_Y156_A159V] | 0.957 | 0.448 | 0.616 | 0.311 | 0.373 | 0.37 | 0.365 | 0.193 | 0.257 | 0.326 | 0.443 | 0.463 | 0.424 | 0.227 | 0.233 | 0.231
12 | ARGMEYLASQK [FGFR2_Y616] | 0.763 | 0.755 | 0.369 | 0.394 | 0.385 | 0.433 | 0.534 | 0.398 | 0.657 | 0.669 | 0.461 | 0.576 | 0.443 | 0.563 | 0.37 | 0.376
13 | NQDRTYFESVR [SPEN_Y632_YF] | 0.886 | 0.727 | 0.555 | 0.469 | 0.573 | 0.69 | 0.571 | 0.678 | 0.931 | 0.618 | 0.617 | 0.852 | 0.602 | 0.865 | 0.665 | 0.507
14 | KLKRSYCSPDI [USP8_Y717_S718C] | 0.931 | 0.907 | 0.785 | 0.459 | 0.393 | 0.534 | 0.401 | 0.433 | 0.712 | 0.534 | 0.37 | 0.538 | 0.415 | 0.648 | 0.318 | 0.36
15 | TAPYNYSYIFK [RAB14_Y8] | 1.4 | 1.79 | 13.7 | 6.78 | 1.14 | 1.21 | 0.354 | 0.772 | 0.735 | 0.717 | 3.26 | 1.03 | 1.74 | 0.561 | 1.59 | 9.69
16 | DYDHSYYFIAT [ESD_Y262_G257D] | 0.684 | 0.589 | 0.456 | 3.77 | 2.24 | 9.9 | 1.48 | 1.81 | 1.13 | 0.877 | 3.27 | 2.9 | 11.7 | 7.22 | 1.49 | 5.16
